No end group written: not given here. TAMRA = carboxytetramethylrhodamine
T1: ^15N,^13C-labeled Sin3A PAH1 (mouse, UniProt Q60520 119-195)
T1 sequence (looked up): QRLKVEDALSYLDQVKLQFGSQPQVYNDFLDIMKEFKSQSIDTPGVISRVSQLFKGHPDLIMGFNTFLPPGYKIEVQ

T2: GST-tagged Sin3A PAH1 (mouse, UniProt Q60520 119-195)
T2 sequence (looked up): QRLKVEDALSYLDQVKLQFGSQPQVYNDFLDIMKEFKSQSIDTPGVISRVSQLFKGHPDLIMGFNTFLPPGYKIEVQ


Experiments:
[1] = molecular target: T1, ^15N,^13C-labeled Sin3A PAH1; test: NMR titration
GST-tagged Sin3A PAH1 = molecular target: T2, GST-tagged Sin3A PAH1; test: fluorescence polarisation

binding result [1] | Kd (GST-tagged Sin3A PAH1) [µM] | Binder
binds |  | EYDNYDELVAKSLLNLGKIAED (peptide, UniProt Q9UL68 193-214, looked up) [Myt1L^193−214 SID peptide (released from MBP)]
 | 6 ± 0.9 | {TAMRA}-EYDNYDELVAKSLLNLGKIAED (peptide, UniProt Q9UL68 193-214, looked up) [TAMRA-conjugated Myt1L^193−214 SID peptide]
